B1: LINE1-mini (parent)
chain: GGCAGAGCUCAACACAGCGUGGCAAAGUGGCUGUGGCUAGACUGCC

Variants of: B1
Experiment: self-cleavage, relative activity (ratio to wild type); higher = more cleavage; in vitro, sequencing; the parent is a self-cleaving ribozyme
GGCAGAGCUCAACACAGUGUGGCAAAGUGGCUGUGGCUAAACUGCC [C18U G40A] gave a self-cleavage of 0.1.
GGCAGAGCUCAACACAGUGUGGCAAAGUGGCUGUGGCUAUACUGCC [C18U G40U] showed a self-cleavage of 0.12.
GGCAGAGCUCAACACAGUGUGGCAAAGUGGCUGUGGCUACACUGCC [C18U G40C] showed a self-cleavage of 0.04.
In the case of GGCAGAGCUCAACACAGCAUGGCAAGGUGGCUGUGGCUAGACUGCC [G19A A26G], the self-cleavage is reported as 0.98.
In the case of GGCAGAGCUCAACACAGCAUGGCAACGUGGCUGUGGCUAGACUGCC [G19A A26C], the self-cleavage is reported as 0.52.
Work on GGCAGAGCUCAACACAGUGUGGCAAAGUGACUGUGGCUAGACUGCC [C18U G30A] yielded a self-cleavage of 1.78.
In the case of GGCAGAGCUCAACACAGUGUGGCAAAGUGCCUGUGGCUAGACUGCC [C18U G30C], the self-cleavage is reported as 1.82.
GGCAGAGCUCAACACAGUGUGGCAAAGUGUCUGUGGCUAGACUGCC [C18U G30U] showed a self-cleavage of 0.4.
GGCAGAGCUCAACACAGUGUGUCAAAGUGGCUGUGGCUAGACUGCC [C18U G22U] gave a self-cleavage of 1.21.
Work on GGCAGAGCUCAACACAGUGUGCCAAAGUGGCUGUGGCUAGACUGCC [C18U G22C] yielded a self-cleavage of 1.47.
GGCAGAGCUCAACACAGUGUGACAAAGUGGCUGUGGCUAGACUGCC [C18U G22A] showed a self-cleavage of 1.76.
GGCAGAGCUCAACACAGUGUGGCAAAGUGGCUUUGGCUAGACUGCC [C18U G33U] gave a self-cleavage of 0.05.
For GGCAGAGCUCAACACAGUGUGGCAAAGUGGCUCUGGCUAGACUGCC [C18U G33C], the self-cleavage was 0.04.
For GGCAGAGCUCAACACAGUGUGGCAAAGUGGCUAUGGCUAGACUGCC [C18U G33A], the self-cleavage was 0.09.
Variant GGCAGAGCUCAACACAGUGUGGCAAAGAGGCUGUGGCUAGACUGCC [C18U U28A] has a self-cleavage of 0.86.
Variant GGCAGAGCUCAACACAGUGUGGCAAAGCGGCUGUGGCUAGACUGCC [C18U U28C] has a self-cleavage of 1.2.
Variant GGCAGAGCUCAACACAGUGUGGCAAAGGGGCUGUGGCUAGACUGCC [C18U U28G] has a self-cleavage of 0.43.
For GGCAGAGCUCAACACAGCAUGGCAGAGUGGCUGUGGCUAGACUGCC [G19A A25G], the self-cleavage was 0.58.
In the case of GGCAGAGCUCAACACAGCAUGGCACAGUGGCUGUGGCUAGACUGCC [G19A A25C], the self-cleavage is reported as 1.21.
Work on GGCAGAGCUCAACACAGCAUGGCAUAGUGGCUGUGGCUAGACUGCC [G19A A25U] yielded a self-cleavage of 1.66.
Work on GGCAGAGCUCAACACAGUGUGGCAAAGUGGCUGUAGCUAGACUGCC [C18U G35A] yielded a self-cleavage of 0.1.
GGCAGAGCUCAACACAGUGUGGCAAAGUGGCUGUCGCUAGACUGCC [C18U G35C] gave a self-cleavage of 0.03.
With GGCAGAGCUCAACACAGUGUGGCAAAGUGGCUGUUGCUAGACUGCC [C18U G35U] the self-cleavage was 0.08.
For GGCAGAGCUCAACACAGUGUGGCAAAGUUGCUGUGGCUAGACUGCC [C18U G29U], the self-cleavage was 1.87.
GGCAGAGCUCAACACAGUGUGGCAAAGUCGCUGUGGCUAGACUGCC [C18U G29C] gave a self-cleavage of 0.86.
In the case of GGCAGAGCUCAACACAGUGUGGCAAAGUAGCUGUGGCUAGACUGCC [C18U G29A], the self-cleavage is reported as 1.77.
Variant GGCAGAGCUCAACACAGUGUGGCAAAGUGGCCGUGGCUAGACUGCC [C18U U32C] has a self-cleavage of 0.16.
GGCAGAGCUCAACACAGUGUGGCAAAGUGGCAGUGGCUAGACUGCC [C18U U32A] showed a self-cleavage of 0.04.
For GGCAGAGCUCAACACAGUGUGGCAAAGUGGCGGUGGCUAGACUGCC [C18U U32G], the self-cleavage was 0.09.
With GGCAGAGCUCAACACAGUGGGGCAAAGUGGCUGUGGCUAGACUGCC [C18U U20G] the self-cleavage was 0.41.
For GGCAGAGCUCAACACAGUGAGGCAAAGUGGCUGUGGCUAGACUGCC [C18U U20A], the self-cleavage was 0.61.
Work on GGCAGAGCUCAACACAGUGCGGCAAAGUGGCUGUGGCUAGACUGCC [C18U U20C] yielded a self-cleavage of 0.98.
Variant GGCAGAGCUCAACACAGCAUGGCAAAGUGGCUGUGGCUAGACUGCC [G19A] has a self-cleavage of 1.5.
Variant GGCAGAGCUCAACACAGUGUGGCAAAGUGGCUGUGGCUAGACUUCC [C18U G44U] has a self-cleavage of 0.07.
With GGCAGAGCUCAACACAGUGUGGCAAAGUGGCUGUGGCUAGACUACC [C18U G44A] the self-cleavage was 0.22.
Variant GGCAGAGCUCAACACAGUGUGGCAAAGUGGCUGUGGCUAGACUCCC [C18U G44C] has a self-cleavage of 0.28.
With GGCAGAGCUCAACACAGUGUGGCAAAGUGGCUGUGGCUAGACAGCC [C18U U43A] the self-cleavage was 0.06.
With GGCAGAGCUCAACACAGUGUGGCAAAGUGGCUGUGGCUAGACGGCC [C18U U43G] the self-cleavage was 0.
GGCAGAGCUCAACACAGUGUGGCAAAGUGGCUGUGGCUAGACCGCC [C18U U43C] gave a self-cleavage of 0.09.
GGCAGAGCUCAACACAGCAUGGCUAAGUGGCUGUGGCUAGACUGCC [G19A A24U] gave a self-cleavage of 2.05.
GGCAGAGCUCAACACAGCAUGGCGAAGUGGCUGUGGCUAGACUGCC [G19A A24G] gave a self-cleavage of 1.45.
GGCAGAGCUCAACACAGCAUGGCCAAGUGGCUGUGGCUAGACUGCC [G19A A24C] showed a self-cleavage of 0.61.
For GGCAGAGCUCAACACAGUGUGGCAAAGUGGCUGUGACUAGACUGCC [C18U G36A], the self-cleavage was 0.15.
For GGCAGAGCUCAACACAGUGUGGCAAAGUGGCUGUGCCUAGACUGCC [C18U G36C], the self-cleavage was 0.06.
Work on GGCAGAGCUCAACACAGUGUGGCAAAGUGGCUGUGUCUAGACUGCC [C18U G36U] yielded a self-cleavage of 0.06.
With GGCAGAGCUCAACACAGUGUGGCAAAGUGGCUGGGGCUAGACUGCC [C18U U34G] the self-cleavage was 0.03.
For GGCAGAGCUCAACACAGUGUGGCAAAGUGGCUGAGGCUAGACUGCC [C18U U34A], the self-cleavage was 0.07.
GGCAGAGCUCAACACAGUGUGGCAAAGUGGCUGCGGCUAGACUGCC [C18U U34C] gave a self-cleavage of 0.07.
With GGCAGAGCUCAACACAGUGUUGCAAAGUGGCUGUGGCUAGACUGCC [C18U G21U] the self-cleavage was 2.05.
Variant GGCAGAGCUCAACACAGUGUCGCAAAGUGGCUGUGGCUAGACUGCC [C18U G21C] has a self-cleavage of 1.13.
Work on GGCAGAGCUCAACACAGUGUGGCAAAGUGGCUGUGGCGAGACUGCC [C18U U38G] yielded a self-cleavage of 0.01.
Variant GGCAGAGCUCAACACAGUGUGGCAAAGUGGCUGUGGCCAGACUGCC [C18U U38C] has a self-cleavage of 0.27.
Variant GGCAGAGCUCAACACAGUGUGGCAAAGUGGCUGUGGCAAGACUGCC [C18U U38A] has a self-cleavage of 0.75.
In the case of GGCAGAGCUCAACACAGUGUGGCAAAAUGGCUGUGGCUAGACUGCC [C18U G27A], the self-cleavage is reported as 0.84.
With GGCAGAGCUCAACACAGUGUGGCAAACUGGCUGUGGCUAGACUGCC [C18U G27C] the self-cleavage was 0.55.
GGCAGAGCUCAACACAGUGUGGCAAAUUGGCUGUGGCUAGACUGCC [C18U G27U] showed a self-cleavage of 1.63.

From the RNAGym collection of RNA variant scans (doi:10.7554/elife.90254)
